Values of other authors in patent publication US9889085B1, “Therapeutic methods for the treatment of diabetes and related conditions for patients with high baseline HbA1c” (Intarcia Therapeutics, Inc., priority 2014, dated 2018).

Settings: in vivo

PYY: 36 amino acid residue peptide amide
half-life: approximately 8 minutes

EGTFTSDVSSYLEGQAAKEFIAWLVKGR [GLP-1]
half-life: approximately 2 minutes
